T1: human CD30 (commercial, conjugated to digoxigenin) (human, UniProt P28908 19-379, limits assumed, conjugated to digoxigenin (DIG))
T1 sequence (looked up): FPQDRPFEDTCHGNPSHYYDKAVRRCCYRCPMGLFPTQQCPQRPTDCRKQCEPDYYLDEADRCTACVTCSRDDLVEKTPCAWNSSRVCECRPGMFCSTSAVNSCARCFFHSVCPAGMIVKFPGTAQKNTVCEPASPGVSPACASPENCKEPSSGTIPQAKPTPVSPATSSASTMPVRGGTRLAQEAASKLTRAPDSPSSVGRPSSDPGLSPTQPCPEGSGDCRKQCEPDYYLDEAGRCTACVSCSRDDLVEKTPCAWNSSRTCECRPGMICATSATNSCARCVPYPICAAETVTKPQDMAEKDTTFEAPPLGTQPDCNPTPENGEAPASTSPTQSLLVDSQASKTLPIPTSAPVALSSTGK

T2: CD30 fused to the Fc region of IgG1 (R&D Systems) (UniProt P28908 19-379)
T2 sequence (looked up): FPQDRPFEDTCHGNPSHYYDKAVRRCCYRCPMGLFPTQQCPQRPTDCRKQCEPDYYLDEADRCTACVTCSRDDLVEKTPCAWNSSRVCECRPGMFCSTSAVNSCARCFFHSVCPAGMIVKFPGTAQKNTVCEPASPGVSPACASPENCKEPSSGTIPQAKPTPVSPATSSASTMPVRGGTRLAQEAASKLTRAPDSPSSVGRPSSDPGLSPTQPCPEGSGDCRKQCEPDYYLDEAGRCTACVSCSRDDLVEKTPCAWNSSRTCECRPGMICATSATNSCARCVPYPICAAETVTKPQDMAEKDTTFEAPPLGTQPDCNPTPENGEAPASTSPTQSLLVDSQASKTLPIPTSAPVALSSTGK


Experiments:
[1] = biological target: EGFR extracellular domain (R&D Systems) (UniProt P00533 25-645, limits assumed); assay: SPR, full length antibody over EGFR chip
[2] = biological target: T1, human CD30 (commercial, conjugated to …); assay: AlphaScreen competition vs biotin-WT AC10
[3] = biological target: T2, CD30 fused to the Fc region of IgG1 …; assay: SPR, CD30-Fc on Protein A chip

| Binder | binding result [1] | Fold IC50 vs WT [2] | IC50 [2] | Fold KD vs WT [3] | Kd [3] |
| --- | --- | --- | --- | --- | --- |
| C225 L0/H8 full length antibody (antibody, IgG1, V domains shown) VH: QVQLVESGGGLVQPGRSLRLSCAVSGFSLTNYGVHWVRQAPGKGLEWVSVIWSGGNTDYNTSVKGRFTISKDNSKSTVYLQMNSLRAEDTAVYYCARALTYYDYEFAYWGQGTLVTVSS VL: not shown | binds |  |  |  |  |
| AC10 H3/L2 full length antibody (antibody, V domains shown) VH: QIQLVQSGPEVKKPGASVKVSCKASGYTFTDYYITWVRQAPGQGLEWMGWIYPGSGNTKYNEKFQGRFVFSVDTSASTAYLQISSLKAEDTAVYFCANYGNYWFAYWGQGTLVTVSS VL: DIVLTQSPSSLSASVGDRVTITCRASQSVDFDGDSYMNWYQQKPGQPPKVLIYAASNLESGIPARFSGSGSGTDFTLTISSLQPEDFATYYCQQSNEDPWTFGGGTKVEIK |  | 0.48 fold | 6.57 nM | 1.19 fold | 2.86 nM |
| AC10 H2/L2 full length antibody (antibody, V domains shown) VH: QIQLVESGGGLVKPGGSLRLSCAASGYTFTDYYITWVRQAPGQGLEWMGWIYPGSGNTKYNEKFQGRVTMTVDTSTSTAYMELSSLRSEDTAVYFCANYGNYWFAYWGQGTLVTVSS VL: DIVLTQSPSSLSASVGDRVTITCRASQSVDFDGDSYMNWYQQKPGQPPKVLIYAASNLESGIPARFSGSGSGTDFTLTISSLQPEDFATYYCQQSNEDPWTFGGGTKVEIK |  | 0.06 fold | 49.2 nM | 0.57 fold | 5.95 nM |
| AC10 H0/L1 full length antibody (antibody, V domains shown) VH: QIQLQQSGPEVVKPGASVKISCKASGYTFTDYYITWVKQKPGQGLEWIGWIYPGSGNTKYNEKFKGKATLTVDTSSSTAFMQLSSLTSEDTAVYFCANYGNYWFAYWGQGTQVTVSA VL: DIVLTQSPATLSLSPGERATLSCRASQSVDFDGDSYMNWYQQKPGQPPKVLIYAASNLESGIPARFSGSGSGTDFTLTISSLQPEDFATYYCQQSNEDPWTFGGGTKVEIK |  | 0.61 fold | 5.19 nM | 1.03 fold | 3.29 nM |
| AC10 H2/L1 full length antibody (antibody, V domains shown) VH: QIQLVESGGGLVKPGGSLRLSCAASGYTFTDYYITWVRQAPGQGLEWMGWIYPGSGNTKYNEKFQGRVTMTVDTSTSTAYMELSSLRSEDTAVYFCANYGNYWFAYWGQGTLVTVSS VL: DIVLTQSPATLSLSPGERATLSCRASQSVDFDGDSYMNWYQQKPGQPPKVLIYAASNLESGIPARFSGSGSGTDFTLTISSLQPEDFATYYCQQSNEDPWTFGGGTKVEIK |  | 0.06 fold | 55.1 nM | 0.36 fold | 9.49 nM |
| AC10 H0/L2 full length antibody (antibody, V domains shown) VH: QIQLQQSGPEVVKPGASVKISCKASGYTFTDYYITWVKQKPGQGLEWIGWIYPGSGNTKYNEKFKGKATLTVDTSSSTAFMQLSSLTSEDTAVYFCANYGNYWFAYWGQGTQVTVSA VL: DIVLTQSPSSLSASVGDRVTITCRASQSVDFDGDSYMNWYQQKPGQPPKVLIYAASNLESGIPARFSGSGSGTDFTLTISSLQPEDFATYYCQQSNEDPWTFGGGTKVEIK |  | 0.41 fold | 7.81 nM | 0.97 fold | 3.48 nM |
| C225 L2/H5 full length antibody (antibody, IgG1, V domains shown) VH: QVQLQQSGPGLVKPSQTLSLTCTVSGFSLTNYGVHWVRQAPGKGLEWLGVIWSGGNTDYNTPLTSRLTINKDNSKSQVVLQMNSLRAEDTAVYYCARALTYYDYEFAYWGQGTLVTVSS VL: DILLTQSPATLSLSPGERVTLSCRASQSIGTNIHWYQQKPDQSPKLLIKYASESISGIPSRFSGSGSGTDFTLTISSLQPEDFADYYCQQNNNWPTTFGAGTKLEIK | binds |  |  |  |  |
| C225 L3/H4 full length antibody (antibody, IgG1, V domains shown) VH: QVQLQQSGPGLVKPSQTLSLTCTVSGFSLTNYGVHWVRQAPGKGLEWLGVIWSGGNTDYNTSLKSRLTISKDNSKSQVVLTMTNMDPVDTATYYCARALTYYDYEFAYWGQGTLVTVSS VL: DILLTQSPSSLSASVGDRVTITCRASQSIGTNIHWYQQKPDQSPKLLIKYASESISGIPSRFSGSGSGTDFTLTISSLQAEDVAVYYCQQNNNWPTTFGAGTKLEIK | binds |  |  |  |  |
| C225 L3/H5 full length antibody (antibody, IgG1, V domains shown) VH: QVQLQQSGPGLVKPSQTLSLTCTVSGFSLTNYGVHWVRQAPGKGLEWLGVIWSGGNTDYNTPLTSRLTINKDNSKSQVVLQMNSLRAEDTAVYYCARALTYYDYEFAYWGQGTLVTVSS VL: DILLTQSPSSLSASVGDRVTITCRASQSIGTNIHWYQQKPDQSPKLLIKYASESISGIPSRFSGSGSGTDFTLTISSLQAEDVAVYYCQQNNNWPTTFGAGTKLEIK | binds |  |  |  |  |
| C225 L0/H3 full length antibody (antibody, IgG1, V domains shown) VH: QVQLQQSGPGLVKPSQTLSLTCTVSGFSLTNYGVHWVRQAPGKGLEWLGVIWSGGNTDYNTSLKSRLTISKDNSKSQVVLQMNSLRAEDTAVYYCARALTYYDYEFAYWGQGTLVTVSS VL: not shown | binds |  |  |  |  |
| C225 L2/H8 full length antibody (antibody, IgG1, V domains shown) VH: QVQLVESGGGLVQPGRSLRLSCAVSGFSLTNYGVHWVRQAPGKGLEWVSVIWSGGNTDYNTSVKGRFTISKDNSKSTVYLQMNSLRAEDTAVYYCARALTYYDYEFAYWGQGTLVTVSS VL: DILLTQSPATLSLSPGERVTLSCRASQSIGTNIHWYQQKPDQSPKLLIKYASESISGIPSRFSGSGSGTDFTLTISSLQPEDFADYYCQQNNNWPTTFGAGTKLEIK | binds |  |  |  |  |
| C225 L0/H7 full length antibody (antibody, IgG1, V domains shown) VH: QVQLQQSGPGLVKPSQTLSLTCTVSGFSLTNYGVHWVRQPPGKGLEWIGVIWSGGNTDYNTSLKSRVTISKDNSKSQVSLKLSSVTAADTAVYYCARALTYYDYEFAYWGQGTLVTVSS VL: not shown | binds |  |  |  |  |
| C225 L0/H5 full length antibody (antibody, IgG1, V domains shown) VH: QVQLQQSGPGLVKPSQTLSLTCTVSGFSLTNYGVHWVRQAPGKGLEWLGVIWSGGNTDYNTPLTSRLTINKDNSKSQVVLQMNSLRAEDTAVYYCARALTYYDYEFAYWGQGTLVTVSS VL: not shown | binds |  |  |  |  |
| C225 L4/H3 full length antibody (antibody, IgG1, V domains shown) VH: QVQLQQSGPGLVKPSQTLSLTCTVSGFSLTNYGVHWVRQAPGKGLEWLGVIWSGGNTDYNTSLKSRLTISKDNSKSQVVLQMNSLRAEDTAVYYCARALTYYDYEFAYWGQGTLVTVSS VL: DILLTQSPAFLSVTPGEKVTITCRASQSIGTNIHWYQQKPDQSPKLLIKYASESISGIPSRFSGSGSGTDFTLTINSLEAEDAATYYCQQNNNWPTTFGAGTKLEIK | binds |  |  |  |  |
| C225 L0/H6 full length antibody (antibody, IgG1, V domains shown) VH: QVQLQQSGPGLVKPSQTLSLTCTVSGFSLTNYGVHWVRQAPGKGLEWVGVIWSGGNTDYNTSVKGRFTISKDNSKSQVYLQMNSLRAEDTAVYYCARALTYYDYEFAYWGQGTLVTVSS VL: not shown | binds |  |  |  |  |
| C225 L2/H7 full length antibody (antibody, IgG1, V domains shown) VH: QVQLQQSGPGLVKPSQTLSLTCTVSGFSLTNYGVHWVRQPPGKGLEWIGVIWSGGNTDYNTSLKSRVTISKDNSKSQVSLKLSSVTAADTAVYYCARALTYYDYEFAYWGQGTLVTVSS VL: DILLTQSPATLSLSPGERVTLSCRASQSIGTNIHWYQQKPDQSPKLLIKYASESISGIPSRFSGSGSGTDFTLTISSLQPEDFADYYCQQNNNWPTTFGAGTKLEIK | binds |  |  |  |  |
| C225 L2/H6 full length antibody (antibody, IgG1, V domains shown) VH: QVQLQQSGPGLVKPSQTLSLTCTVSGFSLTNYGVHWVRQAPGKGLEWVGVIWSGGNTDYNTSVKGRFTISKDNSKSQVYLQMNSLRAEDTAVYYCARALTYYDYEFAYWGQGTLVTVSS VL: DILLTQSPATLSLSPGERVTLSCRASQSIGTNIHWYQQKPDQSPKLLIKYASESISGIPSRFSGSGSGTDFTLTISSLQPEDFADYYCQQNNNWPTTFGAGTKLEIK | binds |  |  |  |  |
| C225 L3/H3 full length antibody (antibody, IgG1, V domains shown) VH: QVQLQQSGPGLVKPSQTLSLTCTVSGFSLTNYGVHWVRQAPGKGLEWLGVIWSGGNTDYNTSLKSRLTISKDNSKSQVVLQMNSLRAEDTAVYYCARALTYYDYEFAYWGQGTLVTVSS VL: DILLTQSPSSLSASVGDRVTITCRASQSIGTNIHWYQQKPDQSPKLLIKYASESISGIPSRFSGSGSGTDFTLTISSLQAEDVAVYYCQQNNNWPTTFGAGTKLEIK | binds |  |  |  |  |
| C225 L0/H4 full length antibody (antibody, IgG1, V domains shown) VH: QVQLQQSGPGLVKPSQTLSLTCTVSGFSLTNYGVHWVRQAPGKGLEWLGVIWSGGNTDYNTSLKSRLTISKDNSKSQVVLTMTNMDPVDTATYYCARALTYYDYEFAYWGQGTLVTVSS VL: not shown | binds |  |  |  |  |
| AC10 H2/L0 full length antibody (antibody, V domains shown) VH: QIQLVESGGGLVKPGGSLRLSCAASGYTFTDYYITWVRQAPGQGLEWMGWIYPGSGNTKYNEKFQGRVTMTVDTSTSTAYMELSSLRSEDTAVYFCANYGNYWFAYWGQGTLVTVSS VL: DIVLTQSPASLAVSLGQRATISCKASQSVDFDGDSYMNWYQQKPGQPPKVLIYAASNLESGIPARFSGSGSGTDFTLNIHPVEEEDAATYYCQQSNEDPWTFGGGTKLEIK |  | 0.16 fold | 19.4 nM | 0.42 fold | 8 nM |
| AC10 H0/L3 full length antibody (antibody, V domains shown) VH: QIQLQQSGPEVVKPGASVKISCKASGYTFTDYYITWVKQKPGQGLEWIGWIYPGSGNTKYNEKFKGKATLTVDTSSSTAFMQLSSLTSEDTAVYFCANYGNYWFAYWGQGTQVTVSA VL: DIVLTQSPDSLAVSLGERATINCKASQSVDFDGDSYMNWYQQKPGQPPKVLIYAASNLESGIPARFSGSGSGTDFTLTINSLEAEDAATYYCQQSNEDPWTFGGGTKVEIK |  | 0.69 fold | 4.61 nM | 1.13 fold | 3 nM |

From US7657380
